No end group written: not given here. *: point of attachment. Biotin = O=C1N[C@H]2[C@H](CS[C@H]2CCCCC(=O)*)N1
Key:
Assay in all cases: peptide ELISA on streptavidin plate
[1] = biological target: T1, ET140-p5 (human)
T1 construct: also called peptide 5
T1 peptide: Biotin-SGSGGQCSQNEYFDSLLHA
Method: (§1) The peptides were coated onto Streptavidin plates at 2 ug/mL in PBST (PBS+0.05% Tween-20). After washing and blocking with 3% BSA. […] “mIgG1” used in all Examples represents that the variable region is fully human and the Fc part is mouse IgG1. Then HRP anti-mouse IgG detection antibody was added to each well. Finally, the color was developed using TMB substrate. A450 was recorded for data analysis.

[2] = biological target: T2, ET140-p24 (human, cysteine pairing not given here)
T2 construct: also called peptide 24
T2 peptide: Biotin-SGSGQLRCSSNTPPLTCQR
Method: as §1

[3] = biological target: T3, ET140-p33 (human, cysteine pairing not given here)
T3 construct: also called peptide 33
T3 peptide: Biotin-SGSGPLTCQRYCNASVTNS
Method: as §1

[4] = biological target: T4, ET140-p18 (human, cysteine pairing not given here)
T4 construct: also called peptide 18
T4 peptide: Biotin-SGSGHACIPCQLRCSSNTP
Method: as §1

[5] = biological target: T5, ET140-p17 (human, cysteine pairing not given here)
T5 construct: also called peptide 17
T5 peptide: Biotin-SGSGLHACIPCQLRCSSNT
Method: as §1

[6] = biological target: T6, ET140-p34 (human, cysteine pairing not given here)
T6 construct: also called peptide 34
T6 peptide: Biotin-SGSGLTCQRYCNASVTNSV
Method: as §1

[7] = biological target: T7, ET140-p6 (human, cysteine pairing not given here)
T7 construct: also called peptide 6
T7 peptide: Biotin-SGSGQCSQNEYFDSLLHAC
Method: as §1

[8] = biological target: T8, ET140-p20 (human, cysteine pairing not given here)
T8 construct: also called peptide 20
T8 peptide: Biotin-SGSGCIPCQLRCSSNTPPL
Method: as §1

[9] = biological target: T9, ET140-p4 (human)
T9 construct: also called peptide 4
T9 peptide: Biotin-SGSGAGQCSQNEYFDSLLH
Method: as §1

[10] = biological target: T10, ET140-p19 (human, cysteine pairing not given here)
T10 construct: also called peptide 19
T10 peptide: Biotin-SGSGACIPCQLRCSSNTPP
Method: as §1

[11] = biological target: T11, ET140-p31 (human, cysteine pairing not given here)
T11 construct: also called peptide 31
T11 peptide: Biotin-SGSGTPPLTCQRYCNASVT
Method: as §1

[12] = biological target: T12, ET140-p36 (human, cysteine pairing not given here)
T12 construct: also called peptide 36
T12 peptide: Biotin-SGSGCQRYCNASVTNSVKG
Method: as §1

[13] = biological target: T13, ET140-p37 (human)
T13 construct: also called peptide 37
T13 peptide: Biotin-SGSGQRYCNASVTNSVKGT
Method: as §1

[14] = biological target: T14, ET140-p1 (human)
T14 construct: also called peptide 1; ET140-pl
T14 peptide: Biotin-SGSGLQMAGQCSQNEYFDS
Method: as §1

[15] = biological target: T15, ET140-p22 (human, cysteine pairing not given here)
T15 construct: also called peptide 22
T15 peptide: Biotin-SGSGPCQLRCSSNTPPLTC
Method: as §1

[16] = biological target: T16, ET140-p3 (human)
T16 construct: also called peptide 3
T16 peptide: Biotin-SGSGMAGQCSQNEYFDSLL
Method: as §1

[17] = biological target: T17, ET140-p38 (human)
T17 construct: also called peptide 38
T17 peptide: Biotin-SGSGRYCNASVTNSVKGTN
Method: as §1

[18] = biological target: T18, ET140-p39 (human)
T18 construct: also called peptide 39
T18 peptide: Biotin-SGSGYCNASVTNSVKGTNA
Method: as §1

[19] = biological target: T19, ET140-p30 (human, cysteine pairing not given here)
T19 construct: also called peptide 30
T19 peptide: Biotin-SGSGNTPPLTCQRYCNASV
Method: as §1

[20] = biological target: T20, ET140-p27 (human, cysteine pairing not given here)
T20 construct: also called peptide 27
T20 peptide: Biotin-SGSGCSSNTPPLTCQRYCN
Method: as §1

[21] = biological target: T21, ET140-p15 (human, cysteine pairing not given here)
T21 construct: also called peptide 15
T21 peptide: Biotin-SGSGSLLHACIPCQLRCSS
Method: as §1

[22] = biological target: T22, ET140-p14 (human, cysteine pairing not given here)
T22 construct: also called peptide 14
T22 peptide: Biotin-SGSGDSLLHACIPCQLRCS
Method: as §1

[23] = biological target: T23, ET140-p21 (human, cysteine pairing not given here)
T23 construct: also called peptide 21
T23 peptide: Biotin-SGSGIPCQLRCSSNTPPLT
Method: as §1

[24] = biological target: T24, ET140-p29 (human, cysteine pairing not given here)
T24 construct: also called peptide 29
T24 peptide: Biotin-SGSGSNTPPLTCQRYCNAS
Method: as §1

[25] = biological target: T25, ET140-p16 (human, cysteine pairing not given here)
T25 construct: also called peptide 16
T25 peptide: Biotin-SGSGLLHACIPCQLRCSSN
Method: as §1

Measured: binding result

B1: ET140-153 mIgG1 (antibody, V domains shown)
VH: QVQLVQSGAEVKKPGSSVKVSCKASGGTFSSYAISWVRQAPGQGLEWMGRIIPILGIANYAQKFQGRVTITADKSTSTAYMELSSLRSEDTAVYYCARGGYYSHDMWSEDWGQGTLVTVSS
VL: LPVLTQPPSASGTPGQRVTISCSGRSSNIGSNSVNWYRQLPGAAPKLLIYSNNQRPPGVPVRFSGSKSGTSASLAISGLQSEDEATYYCATWDDNLNVHYVFGTGTKVTVLG
notes: also called ET140-3 mIgG1; ET140-3
no binding (tested: 1 ug/mL): [1] | [2] | [3] | [4] | [5] | [6] | [7] | [8] | [9] | [10] | [11] | [12] | [13] | [14] | [15] | [16] | [17] | [18] | [19] | [20] | [21] | [22] | [23] | [24] | [25]
